This is an account of results in US20140235553A1 (REGENTS OF THE UNIVERSITY OF COLORADO A BODY CORPRATE, published 2014).

First the molecules themselves.
B2: NTD-αB crystallin fusion protein (other)
chain: MGSRVQIRCRFRNSTRDIAIHHPWIRRPFFPFHSPSRLFDQFFGEHLLESDLFPTSTSLSPFYLRPPSFLRAPSWFDTGLSEMRLEKDRFSVNLDVKHFSPEELKVKVLGDVIEVHGKHEERQDEHGFISREFHRKYRIPADVDPLTITSSLSSDGVLTVNGPRKQVSGPERTIPITREEKPAVTAAPKK
notes: also called NTD-HSPB5; A B NgC

Series [1] concerns the target B2. As to the kind of experiment: subunit exchange: AlexaFluor-labeled NTD-αB crystallin with 10-fold molar excess of unlabeled αB crystallin at 37° C., size exclusion FPLC, fluorescence of fractions.
Series [2] concerns the molecule itself. As to the kind of experiment: size exclusion chromatography (Superose 6), self-association into oligomeric complexes.
Series [3] deals with the molecule itself. As to the kind of experiment: size exclusion chromatography, self-association into oligomeric complexes.

B1: αB-crystallin (HSPB5), no transduction peptide (other)
chain: MDIAIHHPWIRRPFFPFHSPSRLFDQFFGEHLLESDLFPTSTSLSPFYLRPPSFLRAPSWFDTGLSEMRLEKDRFSVNLDVKHFSPEELKVKVLGDVIEVHGKHEERQDEHGFISREFHRKYRIPADVDPLTITSSLSSDGVLTVNGPRKQVSGPERTIPITREEKPAVTAAPKK
notes: also called native αB crystallin; unfused αB crystallin
Regarding B1, the binding result in series [1] is recorded as “binds”.
Consider B2, for which, in series [2], the binding result was “binds”.

B3: NTD-αA crystallin fusion protein (other)
chain: MGSRVQIRCRFRNSTRDVTIQHPWFKRTLGPFYPSRLFDQFFGEGLFEYDLLPFLSSTISPYYRQSLFRTVLDSGISEVRSDRDKFVIFLDVKHFSPEDLTVKVQDDFVEIHGKHNERQDDHGYISREFHRRYRLPSNVDQSALSCSLSADGMLTFCGPKIQTGLDATHAERAIPVSREEKPTSAPSS
notes: also called NTD modified α-crystallin subunit (αA)
As to B3, the binding result in series [3] is given as “binds”.
